# Laboratory results from patent US20040087497.
# Columns and labels:
# [1] = system: T1, Suc-Leu-Tyr-Leu-Dox
# T1 sequence: XYX
# [2] = system: T2, Suc-βAla-Leu-Ala-Leu-Dox
# T2 sequence: XLAX
# [3] = system: T3, Suc-βAla-Ile-Ala-Leu-Dox
# T3 sequence: XIAX
# [4] = system: T4, Suc-Leu-Ala-Leu-Dox
# T4 sequence: XAX
# [5] = system: T5, Suc-Ile-Ala-Leu-Dox
# T5 sequence: XAX
# [6] = system: T6, Suc-Met-Ala-Leu-Dox
# T6 sequence: XAX
# [7] = system: T7, Suc-βAla-Leu-Tyr-Leu-Dox
# T7 sequence: XLYX
# [8] = system: T8, Suc-βAla-Leu-Ala-Leu-pNA
# T8 sequence: XLAX
# [9] = system: T9, Suc-Leu-Ala-Gly-Dox
# T9 sequence: XAX
# [10] = scale: fraction relative to Suc-βAla-Leu-Ala-Leu-Dox
substance,measurement,setting,value
purified Porcine Kidney CD10 (Elastin Products Company),% hydrolysis/10 hr (% hydrolysis/10 hr),[1],0
same,Fraction hydrolyzed relative to standard,[1]; [10],0
same,% hydrolysis/10 hr (% hydrolysis/10 hr),[2],10.9
same,Cleaved by CD10,[2],+
same,Fraction hydrolyzed relative to standard,[2]; [10],1
same,% hydrolysis/10 hr (% hydrolysis/10 hr),[3],22.1
same,Cleaved by CD10,[3],+
same,Fraction hydrolyzed relative to standard,[3]; [10],2
same,% hydrolysis/10 hr (% hydrolysis/10 hr),[4],8.3
same,Cleaved by CD10,[4],+
same,Fraction hydrolyzed relative to standard,[4]; [10],0.75
same,% hydrolysis/10 hr (% hydrolysis/10 hr),[5],12.5
same,Cleaved by CD10,[5],+
same,Fraction hydrolyzed relative to standard,[5]; [10],1.1
same,% hydrolysis/10 hr (% hydrolysis/10 hr),[6],37.7
same,Fraction hydrolyzed relative to standard,[6]; [10],3.5
same,% hydrolysis/10 hr (% hydrolysis/10 hr),[7],0
same,Fraction hydrolyzed relative to standard,[7]; [10],0
same,rate of cleavage (release of Leu-pNA) relative to Suc-βAla-Leu-Ala-Leu-Dox (release of Leu-Dox),[8],590 times more rapidly cleaved
same,% hydrolysis/10 hr (% hydrolysis/10 hr),[9],0
same,Cleaved by CD10,[9],-
same,Fraction hydrolyzed relative to standard,[9]; [10],0
thimet oligopeptidase,Cleavage by thimet oligopeptidase,[2],+
same,Cleavage by thimet oligopeptidase,[3],-
same,Cleavage by thimet oligopeptidase,[4],+
same,Cleavage by thimet oligopeptidase,[5],-
same,Cleavage by thimet oligopeptidase,[9],+
